Ends that are not written are not given here. * marks the point of attachment. Biotin = O=C1N[C@H]2[C@H](CS[C@H]2CCCCC(=O)*)N1
What follows are binders tested against GST-PSD95 PDZ domain fusion protein (human post-synaptic density protein 95 AA387-724; PDZ domains 1-3 of 3) (human, UniProt P08515 1-218 = GST) (assay: A and G assays).
GST-PSD95 PDZ domain fusion protein (human post-synaptic density protein 95 AA387-724; PDZ domains 1-3 of 3), sequence (P08515 1-218, tags or fused parts left off): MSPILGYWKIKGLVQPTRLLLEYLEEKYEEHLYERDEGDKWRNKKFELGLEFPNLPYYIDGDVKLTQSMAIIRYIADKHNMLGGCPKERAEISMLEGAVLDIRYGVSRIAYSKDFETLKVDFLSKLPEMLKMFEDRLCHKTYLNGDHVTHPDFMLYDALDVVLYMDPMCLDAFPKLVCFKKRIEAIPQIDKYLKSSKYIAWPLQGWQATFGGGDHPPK
Biotin-KKGTYLTDETHREVKFTSL [CD46 (form 1) C-terminal PL peptide AA10L, biotinylated]: binds.

The binders below were run against T1, GST-NeDLG PDZ domain fusion protein (presynaptic protein sao102, neuroendocrine-dlg; PDZ domains 1-2 of 3) (UniProt P08515 1-218 = GST) (assay: G assay).
T1 construct: also called NeDLG1
T1 sequence (P08515 1-218, tags or fused parts left off): as above
Biotin-KKGTYLTDETHREVKFTSL [CD46 (form 1) C-terminal PL peptide AA10L, biotinylated]: binds.

These binders were tested against GST-PTN-4 PDZ domain fusion protein (protein-tyrosine phosphatase meg1 AA774-862; PDZ domain 1 of 1) (UniProt P08515 1-218 = GST) (assay: A/G assays).
GST-PTN-4 PDZ domain fusion protein (protein-tyrosine phosphatase meg1 AA774-862; PDZ domain 1 of 1), sequence (P08515 1-218, tags or fused parts left off): as above
Biotin-KKGTYLTDETHREVKFTSL [CD46 (form 1) C-terminal PL peptide AA10L, biotinylated]: no binding.

What follows are binders tested against T2, GST-TAX2 PDZ domain fusion protein (human tax interaction protein 2 AA54-140; PDZ domain 1 of 1) (human, UniProt P08515 1-218 = GST) (assay: A/G assays).
T2 construct: also called TX 2
T2 sequence (P08515 1-218, tags or fused parts left off): as above
Biotin-KKGTYLTDETHREVKFTSL [CD46 (form 1) C-terminal PL peptide AA10L, biotinylated]: no binding.

These binders were tested against GST-prIL16 PDZ domain fusion protein (putative interleukin 16 precursor AA170-383; PDZ domains 1-2 of 2) (UniProt P08515 1-218 = GST) (assay: A/G assays).
GST-prIL16 PDZ domain fusion protein (putative interleukin 16 precursor AA170-383; PDZ domains 1-2 of 2), sequence (P08515 1-218, tags or fused parts left off): as above
Biotin-KKGTYLTDETHREVKFTSL [CD46 (form 1) C-terminal PL peptide AA10L, biotinylated]: no binding.

These binders were tested against T3, GST-TAX33 PDZ domain fusion protein (tax interaction protein 33 AA73-162; PDZ domain 1 of 1) (UniProt P08515 1-218 = GST) (assay: A/G assays).
T3 construct: also called TX33
T3 sequence (P08515 1-218, tags or fused parts left off): as above
Biotin-KKGTYLTDETHREVKFTSL [CD46 (form 1) C-terminal PL peptide AA10L, biotinylated]: no binding.

What follows are binders tested against GST-MINT3 PDZ domain fusion protein (human MINT3 AA11-52; PDZ domain 1 of 1) (human, UniProt P08515 1-218 = GST) (assay: A/G assays).
GST-MINT3 PDZ domain fusion protein (human MINT3 AA11-52; PDZ domain 1 of 1), sequence (P08515 1-218, tags or fused parts left off): as above
Biotin-KKGTYLTDETHREVKFTSL [CD46 (form 1) C-terminal PL peptide AA10L, biotinylated]: no binding.

Each binder was assayed against GST-NOS1 PDZ domain fusion protein (human neuronal nitric oxide synthase; PDZ domain 1 of 1) (human, UniProt P08515 1-218 = GST) (assay: A/G assays).
Biotin-KKGTYLTDETHREVKFTSL [CD46 (form 1) C-terminal PL peptide AA10L, biotinylated]: no binding.

These binders were tested against T4, GST-TAX40 PDZ domain fusion protein (human tax interaction protein 40 AA35-137; PDZ domain 1 of 1) (human, UniProt P08515 1-218 = GST) (assay: A/G assays).
T4 construct: also called TX 40
Biotin-KKGTYLTDETHREVKFTSL [CD46 (form 1) C-terminal PL peptide AA10L, biotinylated]: no binding.

Each binder was assayed against T5, GST-MPP2 PDZ domain fusion protein (maguk p55 subfamily member 2 (DLG2) AA185-273; PDZ domain 1 of 1) (UniProt P08515 1-218 = GST) (assay: A/G assays).
T5 construct: also called MMP2
Biotin-KKGTYLTDETHREVKFTSL [CD46 (form 1) C-terminal PL peptide AA10L, biotinylated]: no binding.

These binders were tested against T6, GST-KIAA0559 PDZ domain fusion protein (KIAA0559 AA766-870; PDZ1 of 1) (UniProt P08515 1-218 = GST) (assay: A/G assays).
T6 construct: also called K559
T6 sequence (P08515 1-218, tags or fused parts left off): as above
Biotin-KKGTYLTDETHREVKFTSL [CD46 (form 1) C-terminal PL peptide AA10L, biotinylated]: no binding.

What follows are binders tested against T7, GST-TAX43 PDZ domain fusion protein (human tax interaction protein 43 AA15-85; PDZ domain 1 of 1) (human, UniProt P08515 1-218 = GST) (assay: A/G assays).
T7 construct: also called TX 43
T7 sequence (P08515 1-218, tags or fused parts left off): as above
Biotin-KKGTYLTDETHREVKFTSL [CD46 (form 1) C-terminal PL peptide AA10L, biotinylated]: no binding.

The binders below were run against T8, GST-41.8 kD PDZ domain fusion protein (hypothetical 41.8 kD protein AA4-85; PDZ domain 1 of 1) (UniProt P08515 1-218 = GST) (assay: A/G assays).
T8 construct: also called hypoth
T8 sequence (P08515 1-218, tags or fused parts left off): as above
Biotin-KKGTYLTDETHREVKFTSL [CD46 (form 1) C-terminal PL peptide AA10L, biotinylated]: no binding.

What follows are binders tested against T9, GST-SYN1a PDZ domain fusion protein (alpha1-syntrophin AA96-189; PDZ domain 1 of 1) (UniProt P08515 1-218 = GST) (assay: A/G assays).
T9 construct: also called SYN 1 alpha; SYNTR 1 alpha
T9 sequence (P08515 1-218, tags or fused parts left off): as above
Biotin-KKGTYLTDETHREVKFTSL [CD46 (form 1) C-terminal PL peptide AA10L, biotinylated]: no binding.

Each binder was assayed against T10, GST-RGS12 PDZ domain fusion protein (human regulator of G-protein signalling 12 AA35-103; PDZ domain 1 of 1) (human, UniProt P08515 1-218 = GST) (assay: A/G assays).
T10 construct: also called RSG12
T10 sequence (P08515 1-218, tags or fused parts left off): as above
Biotin-KKGTYLTDETHREVKFTSL [CD46 (form 1) C-terminal PL peptide AA10L, biotinylated]: no binding.

The binders below were run against T11, GST-KIAA0303 PDZ domain fusion protein (KIAA0303 AA652-742; PDZ domain 1 of 1) (UniProt P08515 1-218 = GST) (assay: A/G assays).
T11 construct: also called K303
T11 sequence (P08515 1-218, tags or fused parts left off): as above
Biotin-KKGTYLTDETHREVKFTSL [CD46 (form 1) C-terminal PL peptide AA10L, biotinylated]: no binding.

These binders were tested against T12, GST-CASK PDZ domain fusion protein (CASK AA495-584; PDZ domain 1 of 1) (mouse, UniProt P08515 1-218 = GST) (assay: A/G assays).
T12 construct: also called mCASK
Biotin-KKGTYLTDETHREVKFTSL [CD46 (form 1) C-terminal PL peptide AA10L, biotinylated]: no binding.

Each binder was assayed against GST-MPP1 PDZ domain fusion protein (55 Kd erythrocyte membrane protein AA101-186; PDZ domain 1 of 1) (UniProt P08515 1-218 = GST) (assay: A/G assays).
GST-MPP1 PDZ domain fusion protein (55 Kd erythrocyte membrane protein AA101-186; PDZ domain 1 of 1), sequence (P08515 1-218, tags or fused parts left off): as above
Biotin-KKGTYLTDETHREVKFTSL [CD46 (form 1) C-terminal PL peptide AA10L, biotinylated]: no binding.

The binders below were run against T13, GST-KIAA0316 PDZ domain fusion protein (KIAA0316 AA197-284; PDZ domain 1 of 1) (UniProt P08515 1-218 = GST) (assay: A/G assays).
T13 construct: also called K316
T13 sequence (P08515 1-218, tags or fused parts left off): as above
Biotin-KKGTYLTDETHREVKFTSL [CD46 (form 1) C-terminal PL peptide AA10L, biotinylated]: no binding.

Each binder was assayed against T14, GST-CBP PDZ domain fusion protein (Cytohesin binding protein HE AA85-175; PDZ domain 1 of 1) (UniProt P08515 1-218 = GST) (assay: A/G assays).
T14 construct: also called Prot
T14 sequence (P08515 1-218, tags or fused parts left off): as above
Biotin-KKGTYLTDETHREVKFTSL [CD46 (form 1) C-terminal PL peptide AA10L, biotinylated]: no binding.

These binders were tested against GST-DVL1 PDZ domain fusion protein (human dishevelled segment polarity protein homolog AA248-340); PDZ domain … (human, UniProt P08515 1-218 = GST) (assay: A/G assays).
GST-DVL1 PDZ domain fusion protein (human dishevelled segment polarity protein homolog AA248-340); PDZ domain …, sequence (P08515 1-218, tags or fused parts left off): as above
Biotin-KKGTYLTDETHREVKFTSL [CD46 (form 1) C-terminal PL peptide AA10L, biotinylated]: no binding.

Each binder was assayed against GST-TIAM1 PDZ domain fusion protein (T-lymphoma invasion and metastasis inducing protein 1 AA1001-1088); PDZ 1 … (UniProt P08515 1-218 = GST) (assay: A/G assays).
GST-TIAM1 PDZ domain fusion protein (T-lymphoma invasion and metastasis inducing protein 1 AA1001-1088); PDZ 1 …, sequence (P08515 1-218, tags or fused parts left off): as above
Biotin-KKGTYLTDETHREVKFTSL [CD46 (form 1) C-terminal PL peptide AA10L, biotinylated]: no binding.

The binders below were run against GST-LIMK2 PDZ domain fusion protein (human LIM domain kinase 2 AA185-275; PDZ domain 1 of 1) (human, UniProt P08515 1-218 = GST) (assay: A/G assays).
GST-LIMK2 PDZ domain fusion protein (human LIM domain kinase 2 AA185-275; PDZ domain 1 of 1), sequence (P08515 1-218, tags or fused parts left off): as above
Biotin-KKGTYLTDETHREVKFTSL [CD46 (form 1) C-terminal PL peptide AA10L, biotinylated]: no binding.

The binders below were run against GST-AF6 PDZ domain fusion protein (af-6 protein AA985-1077; PDZ domain 1 of 1) (UniProt P08515 1-218 = GST) (assay: A/G assays).
GST-AF6 PDZ domain fusion protein (af-6 protein AA985-1077; PDZ domain 1 of 1), sequence (P08515 1-218, tags or fused parts left off): as above
Biotin-KKGTYLTDETHREVKFTSL [CD46 (form 1) C-terminal PL peptide AA10L, biotinylated]: no binding.

These binders were tested against GST-LIM PDZ domain fusion protein (Human LIM protein AA29-112; PDZ domain 1 of 1) (human, UniProt P08515 1-218 = GST) (assay: A/G assays).
GST-LIM PDZ domain fusion protein (Human LIM protein AA29-112; PDZ domain 1 of 1), sequence (P08515 1-218, tags or fused parts left off): as above
Biotin-KKGTYLTDETHREVKFTSL [CD46 (form 1) C-terminal PL peptide AA10L, biotinylated]: no binding.
